# Measured values as given in the supplement of paper PMC9170038.
# Tested on: K4 kissing-loop RNA reporter
# Assay: apparent KD of K4 kissing-loop reporter; higher = weaker reporter binding
# Details: Eterna round: R107
# Method: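 RNA-MaP round R107: designed RNA switches with theophylline, tryptophan, arginine or FMN aptamers are transcribed on-chip within common flanks. They are titrated with a labelled K4 kissing-loop RNA reporter in RNA-MaP buffer (100 mM Tris pH 7.5, 80 mM KCl, 4 mM MgCl2), without ligand or with the indicated ligand. Median apparent KD per design.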
# [1] = input ligand: theophylline 20 uM
# [2] = input ligand: tryptophan 2.4 mM
# 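Also: bound reporter read as fluorescence of individual clusters on recovered sequencing chips by microscopy, with normalized cluster intensities fitted with a binding model.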
Sequence,apparent KD of K4 kissing-loop reporter (input ligand: FMN 200 uM) [nM],apparent KD of K4 kissing-loop reporter (input ligand: arginine 13.2 mM) [nM],apparent KD of K4 kissing-loop reporter (input ligand: none) [nM],apparent KD of K4 kissing-loop reporter [1] [nM],apparent KD of K4 kissing-loop reporter [2] [nM]
GCGUCUUGGUCGGCCGCCACUGAGCCUAGUCACACUCUUGAGUGAUGUUGAAGAUGGUGGACUUGCAGGACCGGGACCACGGACG [theeternabot_sameState_KL_Trp_B_41],946,612,590,569,450
CGGCUCAAUCCUAGUAUUAAGAGGGAGUUGCGAGGACCGGUACGGCCGCCACUCGAAGUAGUUUGGCCAGUGAUGUUGGUCUUAC [Mabeleon],203,194,210,204,121
AAGCAGUCACUCUAAGCCAUCGAAGAUGGUCGAGGACCGGUACGGCCGCCACUCGGAGUGAUGUUCCGAAGACUGCAAAAUAAAA,410,393,468,459,249
GGGCGGCAGACGGCCGCCACUCAUAGCAGCCAGUGAGUGAUGUUCGUGGCGGAGUGAUGUUCCUAGAGGACCGGGUUUGUUGUUC [Same State Tryptophan B GF 19],551,354,464,471,596
UGACUGGACUGAAGGAGCGCUAAAACUCCUAGUGAUGUUGGGAAAUAAGAGACAAAGUCUCAGCAGGUAGGUCGCAGUCUAGUCU [ArgBS 24 #SwitchBubble #StaticStem],481,462,503,657,526
AAUAAUGAUGUUUAGGAUUUCCGAAUGGAAGGAGCGUGCGAAAGCACAGGUAGGUCGCCAGUGAUGUUGGGACCUGAGCAUCAAA [#SwitchBubble 6 #K4Late],681,514,703,807,629
CCUAUCUCAUACGAUACCAGUGAUUAACCAGUGAUGUUGGAAUAACCAAGGAAUAUUUAUCACCCUUGGCAGCGUAUGGGAUAGG [Ex Theophylline B K4 28],99.8,54.4,83.3,115,69.4
AAACAUCACUGGGAGUGAUGUUCUCAGUGACGAGGACCGGUACGGCCGCCACUCGCGAGAGAUAUAGGUAAGUAAUGACAUCAUU [Excl Tryptophan A V5],340,282,360,327,392
GGAUAGGACAGAGGAUAUCUCUAAAGAGGCAAGAAAACUUGUCUCAGAGAUGACUCAGUGAUGUUGAGAGAAGGCUGUCCUAUCG [FmnBX 7 - #SwitchBubble #StaticStem],425,161,174,168,152
UUGCAAAAGUCGGCCGCCACUCCGGGCCCUAUAAAUGGGCGCAGUGAUGUUGCGGCUAGGCCUCUGAGGACCGGGACUUUGUAGC [Aenonlebe],79,103,142,111,199
ACUGGGUUGACGAAAGUCAACAAAAGAGAAGGAGCGCACGAAAGUGCAGGUAGGUCGCUCAUCCAGUGAUGUUGGAUCAUCCAGA [#SwitchBubble 17 #K4Late],444,679,626,392,305
ACCUACGAUCACAAAAGUGAUUGUAGGAUCUAGGAUAUGCUGAAGAGCAGAAGGAGAGUGAUGUUCUCAUCUCACGAAAGUGAGA [whbob_Ex_FMNA__2th189],408,189,216,263,201
AAACAUCACUACUUCUUCGUCCUAGAAGACUAGGAUAUCAGGAAACUGAGAAGGAGUCUCUGCAGUGAUGUUGCAGCUAGGACGA [[K]'-[F2]'-[F1]'-[F1]-[F2]-[K1]-[K2]-[F]''_Design2],191,219,194,249,280
UGUCAUUGGUCGGCCGCCACUAGACGGACAUAAAGUCUGUCAUAAAGAGUGAUGUUCUUAAAUAAUAGGACCGGGACCGAUGACU [TrypBS 29 #SwitchBubble #StaticStem],440,382,872,611,218
AGUGAUGUUUCUUUUAAGAGUGAUGUUUUUCGAGGACCGGUACGGCCGCCACUCGAGUGAUGAGUGCGUCGUUGUGGUGAUUAGU [#13 K4 Tryptophan A Exclusion],483,281,463,379,229
AGAUCUGUAACAGAUACCAGAGGACGAUGAUCGAACAGUGAUGUUAUCUGUUAGUCGUCGCUCCCUUGGCAGCUGUUACAGAUCA [Omei KL Theo B SS B v4],106,46.2,55.5,72.1,84.9
AAAUAAAGCAGUCAUCCAGUGAUGUUGGAAGGAGCGUGCGAAAGCACAGGUAGGUCGCCAAAACCUAAUAAUGGCUGCUAAAUAA [#SwitchBubble 2 #K4Early],170,211,176,210,141
AGUCUCAAAAGAGGCAGCACUCACGAGGACAAGGAUAUCAUCUCAAUGAGAAGGUGUCCUCGUCCCUAGUGAUGUUAGGGAGUGC [Omei KL FMN A SS E v6],205,265,305,682,437
AAUGUACAGGGAAGGAGCGUCGUCCAGUGAUGUUGGAGUUAAAUACCAGUGAUGUUGGUUAGACAGGUAGGUCGCCCUAAAGUGC [Exclusion Arginine B Gf 3],104,80.2,92,95,88
GAAGGAGACAACAUCACUACUCCUUCAGACUAGGAUAUCAGGAAACUGAGAAGGAGUCUACUUGCAGUGAUGUUGCAAGAAUAAU [[F]''-[K]'-[F]'-[F1]-[F2]-[K1]-[K2]_Design2],167,123,146,148,118
UGAUACCAGACUGAUACCAGCCACAGAGUCAAAGACUCUGAAAAGGAAACCAGUGAUGUUGGCCCUUGGCAGCAGUCUGGUAUCU [TheoBX 15 #SwitchBubble #StaticStem],191,176,171,152,164

Sequence,apparent KD of K4 kissing-loop reporter (input ligand: FMN 200 uM) [nM],apparent KD of K4 kissing-loop reporter (input ligand: arginine 13.2 mM) [nM],apparent KD of K4 kissing-loop reporter (input ligand: none) [nM],apparent KD of K4 kissing-loop reporter [1] [nM],apparent KD of K4 kissing-loop reporter [2] [nM]
GGUUAAUAGGAGGAUACCAGUACGAAUAAAGUACAUUAAUAGUAGAGUGAUGUUCUAAAGUACCCUUGGCAGCUUAGAGUUAGUU [#19 K4 Theophylline B Exclusion],128,216,169,257,102
GUGGGCAUAGCAGGAUAUCCAUAUUAACAGGAGUCCUCGCCAGUGAUGUUGGAAAGGUACCGGAGUGGAGAAGGGCUCCUACGUA [Anbiratien],594,782,813,757,515
AGGCACGAGCAAGGAUAUUGAGUAGAGUGAUGUUCUGCCUAAGUUGGCUCGUAAGAGCCUUCUUAGCGAGAAGGUGCUCGUGCCU [#2 Same State - FMN A Attempt #27 (HarryS)],297,513,824,611,665
GGUGACAACCAGAGGUGAUGUAUAGAAUAGCGAGGACCGGUACGGCCGCCACUCGUGAAGAGAAAGGAGUGAUGUUCCGUAAUGG [Kazoo C5],330,298,453,485,166
UGGGUGUAGUGAUGUUAUAUAGAGAGUGAUACCAGCGUAGAGAGAUGCCCUUGGCAGCAUAGAAGAGUAUCAUUGGAGGAGGAGG [ExTheophyl.Az],689,743,883,730,514
AAGCAGUCAGAGAGUGAUGUUCUCAAAUAACGAGGACCGGUACGGCCGCCACUCGAAGACUGCAAGUCCUACGAAAAGUAGGACA [Omei inspired 9],78.7,59.5,58.3,136,74.4
GCCAGUGAUGUUGGCGAACCGACGCAUGCAGAGGAUAUUCGAUCUUGAAGAAGGCUGCAGCGUCAUCAUACGCAGUGAUGUUGCG [Same State FMN A GF 27],172,156,182,161,139
AAUAAGGUCGCCGAUACCAGCGCAGGCAGAGCAAAGCUCUGCCAGGUAGUGAUGUUACCGCGCCCUUGGCAGCGGUGGCACGACC [Omei KL Theo B SS C v2],523,357,516,459,579
AGGCGACGCAAAGGAUAUCACGGUUUUCUAGUGAUGUUAGUCAAGACCGACCGAGAAAUCAGUGUUUGAGAAGGUUGAACGUCGC [theeternabot_sameState_KL_FMN_B_46],496,682,1870,756,970
GGUAGCAUGGCGGCCGCCACUCAUCGCCUCCCAUCGUCGGGAAGAAUAAGUGUAGUGAUGUUACAGAGGACCGGGCCAUGCUACC,472,386,898,494,268
AGUGAUGUUGAGUUAUCUUAGUGAAGUGAUCGAGGACCGGUACGGCCGCCACUCGAGUGAUGAGUGAGUGAUGUUUGUUUAGGGA [llkmullin],695,780,897,765,413
UUUCUACCGGGAAGGAGCGUGAAUGAUAAUGGAUAUAGUGAUGUUAUAUAUAAGAACGAAUCGCAGGUAGGUCGCCCGGAUGACU [SSArgB.S],311,333,352,397,310
AUAUUAACUCAGUGAUGUUGAGUUGACGAAGGAGCGCUAGAGAUAGCAGGUAGGUCGCGUCAAUUUAAUGGAGACUAGCUUUACG [Arg A Ex t4],343,297,365,351,307
AAUGUACAAGUGAUGUUUGUACUUUCCGAAGGAGCGUCUAAUAAGACAGGUAGGUCGCGGAUUCUCUAAAUUAUCAGGUCAUUAA [JR_ExcArginiA_Sub018],91.8,85.4,94.3,85.6,87.4
GGUCUGCCGCAGUGAUGUUGCUGGCAUACACGAGGACCGGUACGGCCGCCACUCGAUGCUCCAAGAACCACCAAUCUUCGGUAUC [theeternabot_sameState_KL_Trp_A_48],257,235,229,236,236
GAUUAUUAUUCUAAAUAACAUUAUUCAGAAGGAGCGUGUUUGUACACAGGUAGGUCGCUGAAUGCUAAGCCAGUGAUGUUGGUAA [JR_SSArginiA_Sub001],154,206,203,191,128
AGUGUUAGGUUAGAUACCAGCCGUCCGUGGAUAACCCUCGGACCGCCAGUGAUGUUGGCAGGCCCUUGGCAGCUAACAGAACAGA [Beriisa],263,208,250,152,199
UAUUGAGUGAUGUUCGAUAACCAAUCAGAUACCAGUUUUGUAGAAAACCCUUGGCAGCUGCUCAGCUCUAUAAUGCUUCGCCCUU [theeternabot_sameState_KL_Theo_A_18],199,169,208,184,177
AUACGUUUUUGUGAUACCAGACAUGUGAGUGAUGUUUACAUAUAUAUUUAAUAUUUAGCUGUCCCUUGGCAGCACUGUUUAUUUA [JR_ExcTheophyB_Sub004],362,382,420,437,301
UGACUUGCCUGAGGAUAUCUAGGAUAUCCAUAAAAGAAAAUAAUAAUCCAGUGAUGUUGGAGAAGGAGAGAAGGCAGGUAAGUCU [KL-XFMN-B17 #DoubleAptamer #SwitchBubble],176,114,119,112,119
AUGGUUGUCGUAGGAUAUGUAGGAUAUUCCUAUAGCAGUGAUGUUGCUAAUAUCAAUGGAAGAAGGACAGAAGGACGAUAACCAC [KL-SSFMN-B3 #analogue #DoubleAptamer],113,120,113,118,113
